Experimental data taken from the supplement of paper PMC7125110.
± gives the standard error. This sample holds only a part of the variants without activity.

B1: glmS ribozyme (parent)
chain: AUAAAAGCGCCAGAACUACAGAAAUGUAGUUGACGAGGAGGAGGUUUAUCGAAUUUUCGGCGGAUGCCUCCAAA

Tests used:
Conditions in all cases: with glucosamine-6-phosphate
[1] = variants of: B1; test: self-cleavage kobs at 160 uM GlcN6P; higher = faster cleavage; RNA array
In short: (§1)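 Ribozyme variants carrying barcodes were transcribed in situ on sequenced MiSeq chips by E. coli RNA polymerase and tracked at 37 °C with a hybridised Cy3 probe. They were exposed to 40 μM to 10 mM glucosamine-6-phosphate in HEPES/KCl/Mg(OAc)2 buffer. kobs came from exponential decay fits of normalised per-tile medians, and kcat and KM from weighted Michaelis–Menten fits.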

[2] = variants of: B1; test: self-cleavage kobs at 640 uM GlcN6P; higher = faster cleavage; RNA array
In short: as §1

[3] = variants of: B1; test: self-cleavage kobs at 2500 uM GlcN6P; higher = faster cleavage; RNA array
In short: as §1

[4] = variants of: B1; test: self-cleavage kobs at 10000 uM GlcN6P; higher = faster cleavage; RNA array
In short: as §1

Variant: AUAAAAGCGCAAGAACUACAGAAAUGUAGUUGACGAGGAGGGGGUUUAUCGACUUUUCGGCGGAUGCCUCCAAA
- self-cleavage kobs at 160 uM GlcN6P [1]: < 1e-05 s⁻¹

Variant: AUAAAAGCGCCAGAACUACAGAAAUGUAGUAGGUGAGGAGGAGGUUUAUCGAAUUUUCCGCGGAUGCCUCCAAA
- self-cleavage kobs at 160 uM GlcN6P [1]: < 1e-05 s⁻¹
- self-cleavage kobs at 640 uM GlcN6P [2]: < 1e-05 s⁻¹

Variant: AUAAAAGCGACAGAACUACAGAAAUGUAGUUGACGAGGAGGAGGUUUAUCGAAUUUUCGGCGGAUGCGUCCAAA
- self-cleavage kobs at 160 uM GlcN6P [1]: 0.000416 ± 0.00019 s⁻¹
- self-cleavage kobs at 640 uM GlcN6P [2]: 6.2e-05 ± 2.8e-05 s⁻¹
- self-cleavage kobs at 2500 uM GlcN6P [3]: 6.4e-05 ± 1.8e-05 s⁻¹

Variant: AUAAAAGCGCCAGAACUACAGAAAUGUAAUUGACGGGGAGGAGGUUUAUCGAAUUUUAGGCGGAUGCCUCCAAA
- self-cleavage kobs at 160 uM GlcN6P [1]: < 1e-05 s⁻¹
- self-cleavage kobs at 640 uM GlcN6P [2]: < 1e-05 s⁻¹
- self-cleavage kobs at 2500 uM GlcN6P [3]: < 1e-05 s⁻¹
- self-cleavage kobs at 10000 uM GlcN6P [4]: < 1e-05 s⁻¹

Variant: AUAAAAGCGCCAGAACUACAGAAAUGUAGUUGUCGAGAAGGAGGUUUGUCGAAUUUUCGGCGGAUUCCGCCAAA
- self-cleavage kobs at 160 uM GlcN6P [1]: 4.81e-05 ± 1.6e-05 s⁻¹
- self-cleavage kobs at 640 uM GlcN6P [2]: 0.000108 ± 2.9e-05 s⁻¹

Variant: AUAAAAACGCCCGAACUACAGAAAUGUAGUUGACGAGGAGGAGGUUUAUCGAAUUUUCGGCGGAUGCCUCCAAA
- self-cleavage kobs at 160 uM GlcN6P [1]: < 1e-05 s⁻¹

Variant: AUAAAAGCGCCAGAAAUACAGAAAUGUAGUUGACGAGGAGGAGGUUUAUCGAAAUUUCGGCGGAUGACUCCAAA
- self-cleavage kobs at 160 uM GlcN6P [1]: 4.32e-05 ± 1.9e-05 s⁻¹
- self-cleavage kobs at 640 uM GlcN6P [2]: 6.57e-05 ± 2.8e-05 s⁻¹
- self-cleavage kobs at 2500 uM GlcN6P [3]: 0.000181 ± 4.8e-05 s⁻¹

Variant: AUAAAAGCGCCAGAACUACAGAAAUGUAGUUGUCGAGGAGGAGGUUAAUCGAAUUUUCGGCUGGUGCCUCUAAA
- self-cleavage kobs at 160 uM GlcN6P [1]: < 1e-05 s⁻¹
- self-cleavage kobs at 640 uM GlcN6P [2]: < 1e-05 s⁻¹

Variant: AUAAAAGCGUCAGAACUACGGAAAUGUAGUUGACGAGGAGGAGGUUUAUCGAAUCUUCGGCGGAUGCCUCCAAA
- self-cleavage kobs at 160 uM GlcN6P [1]: < 1e-05 s⁻¹

Variant: AUAAAAGCUCCAGAACUACAGAAAUGUAGUUGACGAGGAAGAGGUUUAUCGAAUUUUCGGCGGAUGCCUCCAAA
- self-cleavage kobs at 160 uM GlcN6P [1]: < 1e-05 s⁻¹
- self-cleavage kobs at 640 uM GlcN6P [2]: < 1e-05 s⁻¹
- self-cleavage kobs at 2500 uM GlcN6P [3]: < 1e-05 s⁻¹
- self-cleavage kobs at 10000 uM GlcN6P [4]: < 1e-05 s⁻¹

Variant: AUAAAAGCACCAGAACUACAGAAAUGUAGGUGACGAGGAGGAGGUUUAUCGAAUUUUCCGCGGAUGCCUCCAAA
- self-cleavage kobs at 160 uM GlcN6P [1]: < 1e-05 s⁻¹
- self-cleavage kobs at 640 uM GlcN6P [2]: < 1e-05 s⁻¹

Variant: AUAAAAACGCCAGAACUACAGAAAUGUAGUUGACGAUGAGGAGGUUUAUCGAAUUUUCGGCGGAUGCCUCCAAA
- self-cleavage kobs at 160 uM GlcN6P [1]: < 1e-05 s⁻¹
- self-cleavage kobs at 640 uM GlcN6P [2]: < 1e-05 s⁻¹
- self-cleavage kobs at 2500 uM GlcN6P [3]: < 1e-05 s⁻¹
- self-cleavage kobs at 10000 uM GlcN6P [4]: < 1e-05 s⁻¹

Variant: AUAAAAGCCCCAGAACUACAGAAAUGUAGUUGACGAGGAGGAGGUUUAUCGAAUUGUCGGCGGCUGCCUCCAAA
- self-cleavage kobs at 160 uM GlcN6P [1]: < 1e-05 s⁻¹
- self-cleavage kobs at 640 uM GlcN6P [2]: < 1e-05 s⁻¹
- self-cleavage kobs at 2500 uM GlcN6P [3]: < 1e-05 s⁻¹

Variant: AUAAAAGCGCCAUAACUACAGAAAUGUAGUUGACGACGAGGAGGCUUAUCGAAUUUUCGGCGGAUGCUUCCAAA
- self-cleavage kobs at 160 uM GlcN6P [1]: < 1e-05 s⁻¹
- self-cleavage kobs at 2500 uM GlcN6P [3]: < 1e-05 s⁻¹

Variant: AUAAAAGCGCCCGAACUACAGAAAUGUAGUUGACGAGGAGGAGGUUUAUCGAAUUUUCAGCGCAUGCCUCCAAA
- self-cleavage kobs at 160 uM GlcN6P [1]: < 1e-05 s⁻¹
- self-cleavage kobs at 640 uM GlcN6P [2]: < 1e-05 s⁻¹

Variant: AUAAAAGCGCCAGAACUACAGAAAUGUAGUUGACGUGGAGGAGGUUUAUCGAAUUUGCGGCGGAUGCCUCCAAA
- self-cleavage kobs at 160 uM GlcN6P [1]: < 1e-05 s⁻¹
- self-cleavage kobs at 2500 uM GlcN6P [3]: < 1e-05 s⁻¹
- self-cleavage kobs at 10000 uM GlcN6P [4]: < 1e-05 s⁻¹

Variant: AUAAACGCGCCAGAAUUACAGAAAUGUAGUUGACGAGGAAGAGGUUUAUCGAAUUUCCGGCGGAUGCCACCAAA
- self-cleavage kobs at 160 uM GlcN6P [1]: < 1e-05 s⁻¹

Variant: AUAAAAGCACCAGAACUACAGAAAUGUAGUUGACGAGGAGGGGCUUUAUCGAAUUGUCGGCGGAGGCCUCCAAA
- self-cleavage kobs at 160 uM GlcN6P [1]: < 1e-05 s⁻¹
- self-cleavage kobs at 640 uM GlcN6P [2]: < 1e-05 s⁻¹

Variant: AUAAAAGUGCCCGAACUACAGAAAUGUAGUUGACGAGGAGGACGUUUACCGAAUUUUCGGCGGAUGCCUCCAAA
- self-cleavage kobs at 160 uM GlcN6P [1]: < 1e-05 s⁻¹
- self-cleavage kobs at 640 uM GlcN6P [2]: < 1e-05 s⁻¹
- self-cleavage kobs at 2500 uM GlcN6P [3]: < 1e-05 s⁻¹
- self-cleavage kobs at 10000 uM GlcN6P [4]: < 1e-05 s⁻¹

Variant: AUAAAAGCGCCAGAACUACAGAAAUGUAGUUGACGAGGAGGAGGUUUAUCGAAUUUUCGGCGAAUCCCUCCAAA
- self-cleavage kobs at 160 uM GlcN6P [1]: < 1e-05 s⁻¹
- self-cleavage kobs at 640 uM GlcN6P [2]: < 1e-05 s⁻¹
- self-cleavage kobs at 2500 uM GlcN6P [3]: < 1e-05 s⁻¹
- self-cleavage kobs at 10000 uM GlcN6P [4]: < 1e-05 s⁻¹

Variant: AUAAACGCGCCUGAACUACAGAAAUGUAGUUGACGAGGAGAAGGUUUAUCGAAUUUUCGGCGGAUGCCUCCAAA
- self-cleavage kobs at 160 uM GlcN6P [1]: < 1e-05 s⁻¹
- self-cleavage kobs at 640 uM GlcN6P [2]: < 1e-05 s⁻¹
- self-cleavage kobs at 2500 uM GlcN6P [3]: < 1e-05 s⁻¹

Variant: AUAAAAUCGCCAGAACUACAGAAAUGUAGUUGACGAGGAGGAGGUUUAUCGAAUUUUCGGCGGAUGCCUCUAAA
- self-cleavage kobs at 160 uM GlcN6P [1]: < 1e-05 s⁻¹
- self-cleavage kobs at 10000 uM GlcN6P [4]: < 1e-05 s⁻¹

Variant: AUAAAAGCGCCAGAACUACAGAAAUGUAGUUGACGAGGAGGAGGGUUAUCGACUUUUCGGCGGAUGCCUCUAAA
- self-cleavage kobs at 160 uM GlcN6P [1]: 0.000134 ± 5.7e-05 s⁻¹
- self-cleavage kobs at 640 uM GlcN6P [2]: 0.000323 ± 7e-05 s⁻¹
- self-cleavage kobs at 2500 uM GlcN6P [3]: 0.000938 ± 0.00023 s⁻¹

Variant: AUAAAAGCGCCGGAACUACAGAAAUGUAGUUGACGAGGAUGAGGUUUAUCGAAUUUUCGGCAGAUGCCUCCAAA
- self-cleavage kobs at 160 uM GlcN6P [1]: < 1e-05 s⁻¹

Variant: AUAAAGGCGCCAGAUCUACAGAAAUGUAGUUGACGAGGAGGAGGUUUAUCGUAUUUUCGGCGGAUGCCUCCAAA
- self-cleavage kobs at 160 uM GlcN6P [1]: < 1e-05 s⁻¹
- self-cleavage kobs at 640 uM GlcN6P [2]: < 1e-05 s⁻¹
- self-cleavage kobs at 2500 uM GlcN6P [3]: < 1e-05 s⁻¹

Variant: AUAAAAGCGCCAAAACUACAGAAAUGUAGUUGACGAGGAGGACGUUUAUCGAAUUUUCGGCGGAUACCUCCAAA
- self-cleavage kobs at 160 uM GlcN6P [1]: < 1e-05 s⁻¹
- self-cleavage kobs at 2500 uM GlcN6P [3]: < 1e-05 s⁻¹
- self-cleavage kobs at 10000 uM GlcN6P [4]: < 1e-05 s⁻¹

Variant: AUAAAAGCGCCAGACCUACAGAAAUGUAGUUGACGAGGGGGAGGUUUAUCGAAUUGUCGGGGGAUGCCUCCAAA
- self-cleavage kobs at 160 uM GlcN6P [1]: < 1e-05 s⁻¹
- self-cleavage kobs at 640 uM GlcN6P [2]: < 1e-05 s⁻¹
- self-cleavage kobs at 2500 uM GlcN6P [3]: < 1e-05 s⁻¹

Variant: AUAAAAGCGCCAGAACUACAGAAAUGUAGUUGACGAGGAGUAGGUUUAUCGAAUUUUCGGCGGAUGCCGCCAAA
- self-cleavage kobs at 160 uM GlcN6P [1]: < 1e-05 s⁻¹
- self-cleavage kobs at 640 uM GlcN6P [2]: < 1e-05 s⁻¹
- self-cleavage kobs at 2500 uM GlcN6P [3]: < 1e-05 s⁻¹
- self-cleavage kobs at 10000 uM GlcN6P [4]: < 1e-05 s⁻¹

Variant: AUAAAAGCGCCAGAACUACAGAAAUGUAGUUGACGAGGAGGAGGUUUAUCGAUUUUUCUGUGGAUUCCUCCAAA
- self-cleavage kobs at 160 uM GlcN6P [1]: < 1e-05 s⁻¹
- self-cleavage kobs at 2500 uM GlcN6P [3]: < 1e-05 s⁻¹

Variant: AUAAAAGCGCCUGAGGUACAGAAAUGUAGCUGUCGAGGAGGAGGUUUGUCGAAUUUUCGGCGGAUACCUCCAAA
- self-cleavage kobs at 160 uM GlcN6P [1]: < 1e-05 s⁻¹
- self-cleavage kobs at 640 uM GlcN6P [2]: < 1e-05 s⁻¹
